The chains are these.
B1: Guanyl-specific ribonuclease T1, P00651 (parent)
chain: MMYSKLLTLTTLLLPTALALPSLVERACDYTCGSNCYSSSDVSTAQAAGYQLHEDGETVGSNSYPHKYNNYEGFDFSVSSPYYEWPILSSGDVYSGGSPGADRVVFNENNQLAGVITHTGASGNNFVECT

The variants in one data set derive from B1. Conditions: Aspergillus oryzae (strain ATCC 42149 / RIB 40); pH 5; 10 °C; GdnHCl; Fluorescence; Sodium acetate 0.1 M; reversible: yes; structure 1RN1; whole UniProt chain shown.
As for P99V, the “ddG of mutation (higher = less stable)” value is -1.53 kcal/mol, the denaturant m value came to 3.01 kcal/mol/M and the “denaturant midpoint (higher = more stable)” value (“denaturant midpoint” for short) was 3.43 M.

Still in this data set, the particulars now being: Aspergillus oryzae (strain ATCC 42149 / RIB 40); pH 8; 10 °C; GdnHCl; Fluorescence; PIPES 0.1 M; reversible: yes; structure 1RN1; whole UniProt chain shown.
On to P99V, for which the “ddG of mutation (higher = less stable)” value was -2.44 kcal/mol, the denaturant m value is 3.18 kcal/mol/M and the “denaturant midpoint” value worked out at 2.44 M.

Still in this data set, the particulars now being: Aspergillus oryzae (strain ATCC 42149 / RIB 40); pH 8; 25 °C; GdnHCl; Fluorescence; PIPES 0.1 M; reversible: yes; structure 1RN1; whole UniProt chain shown.
In the case of P99V, the “ddG of mutation (higher = less stable)” value was -2.01 kcal/mol, the denaturant m value is 2.7 kcal/mol/M and the “denaturant midpoint” value was 1.66 M.
